Laboratory results: patent publication US20230014151A1, “COMBINATION ANTIVIRAL THERAPY FOR MEASLES” (The Trustees of Columbia University in the City of New York, priority 2019, published 2023)
Read-outs that look alike come from different tables or passages of the source. Numbered stars: 1 amine (or outer) side, 2 acyl side, 3 side chain; on linkers, the order of the positions; unused ones are H or OH. Bridge positions count the residues as written; N and C are the ends. Square brackets hold non-standard residues; d marks the D form. Peptide text beside a SMILES is read from it. I, II: the chains in the order shown. * marks the point of attachment. X2 = O=C(CCN1C(=O)CC([*:1])C1=O)NCCOCCOCCOCCOCCOCCOCCOCCOCCOCCOCCOCCNC(=O)CCN1C(=O)CC([*:2])C1=O; Succinimide(1-Et,3-yl) = CCN1C(=O)CC(*)C1=O; Cbz = O=C(OCc1ccccc1)*

Columns and labels:
[1] = target: measles virus (MeV) fusion protein F, wild type, expressed on cells (measles virus) (UniProt Q786F3); test: cell-based or functional assay
[2] = test system: viral glycoproteins (H and F); CD150; test: beta-galactosidase complementation-based fusion assay, CD150 target cells; settings: for IC90: read-out: CD150 IC90
[3] = target: viral glycoproteins (H and F); Nectin-4 (Measles virus, UniProt Q786F3); test: beta-galactosidase complementation-based fusion assay, Nectin-4 target cells; settings: for IC50: Nectin4 IC50, Table 3 (extended version)

| Molecule | IC50, beta-galactosidase complementation-based fusion assay, Nectin-4 target cells [1] [nM] | IC90, beta-galactosidase complementation-based fusion assay, Nectin-4 target cells [1] [nM] | IC90 [2] [nM] | IC90 ([3]; read-out: Nectin4 IC90) [nM] | further results |
| --- | --- | --- | --- | --- | --- |
| FIP-HRC450-485-peg4-chol (no GSGSG) (peptide) | 707 | 825 | – | – | – |
| CC(C)CCC[C@@H](C)[C@H]1CC[C@H]2[C@@H]3CC=C4C[C@@H](OC(=O)CCOCCOCCOCCOCCOCCOCCOCCOCCOCCOCCOCCOCCOCCOCCOCCOCCOCCOCCOCCOCCOCCOCCOCCOCCNC(=O)CSC[C@H](NC(=O)CNC(=O)[C@H](Cc5ccccc5)NC(=O)[C@@H](Cc5ccccc5)NC(=O)OCc5ccccc5)C(=O)O)CC[C@]4(C)[C@H]3CC[C@]12C [peg24 chol [FIP] (no GSGSG)] | – | – | 544 ± 34.8 | 568 ± 186 | – |
| FIP-HRC450-485 (no GSGSG) (peptide) | 2770 | 6370 | – | – | – |
| FIP (peptide) | 9720 | > 10000 | – | – | – |
| FIP-chol (no GSGSG) (peptide) | > 1000 | > 1000 | – | – | – |
| O=C(CCN1C(=O)CC(SC[C@H](NC(=O)CNC(=O)[C@H](CO)NC(=O)CNC(=O)[C@H](CO)NC(=O)CNC(=O)CNC(=O)[C@H](Cc2ccccc2)NC(=O)[C@@H](Cc2ccccc2)NC(=O)OCc2ccccc2)C(=O)O)C1=O)NCCOCCOCCOCCOCCOCCOCCOCCOCCOCCOCCOCCNC(=O)CCN1C(=O)CC(SC[C@H](NC(=O)CNC(=O)[C@H](CO)NC(=O)CNC(=O)[C@H](CO)NC(=O)CNC(=O)CNC(=O)[C@H](Cc2ccccc2)NC(=O)[C@@H](Cc2ccccc2)NC(=O)OCc2ccccc2)C(=O)O)C1=O (stereo partly drawn) [[FIP]2-peg11] (I: Cbz-[dF]FGGSGSGC-OH / II: Cbz-[dF]FGGSGSGC-OH; linker I:9-II:9 via X2) | – | – | > 1000 | > 10000 | IC50 [2]: > 1000 nM; IC50 [3]: > 10000 nM |
| CCN1C(=O)CC(SC[C@H](NC(=O)CNC(=O)[C@H](Cc2ccccc2)NC(=O)[C@@H](Cc2ccccc2)NC(=O)OCc2ccccc2)C(=O)O)C1=O (stereo partly drawn) [Monomer N-Maleimide FIP (no GSGSG)] (Cbz-[dF]FGC(Succinimide(1-Et,3-yl))-OH) | – | – | > 1000 | > 1000 | – |
| CC[C@H](C)[C@H](NC(=O)[C@H](C)NC(=O)[C@H](CC(N)=O)NC(=O)CNC(=O)[C@H](CC(C)C)NC(=O)[C@H](CC(N)=O)NC(=O)[C@@H](NC(=O)CNC(=O)[C@@H](NC(=O)[C@H](CC(=O)O)NC(=O)[C@H](CC(C)C)NC(=O)[C@H](CCCNC(=N)N)NC(=O)[C@H](CCC(=O)O)NC(=O)[C@H](CC(C)C)NC(=O)[C@H](CO)NC(=O)[C@@H](NC(=O)[C@@H]1CCCN1C(=O)[C@@H]1CCCN1C(=O)CNC(=O)[C@H](CO)NC(=O)CNC(=O)[C@H](CO)NC(=O)CNC(=O)CNC(=O)[C@H](Cc1ccccc1)NC(=O)[C@@H](Cc1ccccc1)NC(=O)OCc1ccccc1)[C@@H](C)CC)C(C)C)[C@@H](C)O)C(=O)N[C@@H](C)C(=O)N[C@@H](CCCCN)C(=O)N[C@@H](CC(C)C)C(=O)N[C@@H](CCC(=O)O)C(=O)N[C@@H](CC(=O)O)C(=O)N[C@@H](C)C(=O)N[C@@H](CCCCN)C(=O)N[C@@H](CCC(=O)O)C(=O)N[C@@H](CC(C)C)C(=O)N[C@@H](CC(C)C)C(=O)N[C@@H](CCC(=O)O)C(=O)N[C@@H](CO)C(=O)N[C@@H](CO)C(=O)N[C@@H](CC(=O)O)C(=O)N[C@@H](CCC(N)=O)C(=O)N[C@H](C(=O)N[C@@H](CC(C)C)C(=O)N[C@@H](CCCNC(=N)N)C(=O)N[C@@H](CSC1CC(=O)N(CCC(=O)NCCOCCOCCOCCOCCOCCOCCOCCOCCOCCOCCOCCNC(=O)CCN2C(=O)CC(SC[C@H](NC(=O)[C@H](CCCNC(=N)N)NC(=O)[C@H](CC(C)C)NC(=O)[C@@H](NC(=O)[C@H](CCC(N)=O)NC(=O)[C@H](CC(=O)O)NC(=O)[C@H](CO)NC(=O)[C@H](CO)NC(=O)[C@H](CCC(=O)O)NC(=O)[C@H](CC(C)C)NC(=O)[C@H](CC(C)C)NC(=O)[C@H](CCC(=O)O)NC(=O)[C@H](CCCCN)NC(=O)[C@H](C)NC(=O)[C@H](CC(=O)O)NC(=O)[C@H](CCC(=O)O)NC(=O)[C@H](CC(C)C)NC(=O)[C@H](CCCCN)NC(=O)[C@H](C)NC(=O)[C@@H](NC(=O)[C@H](C)NC(=O)[C@H](CC(N)=O)NC(=O)CNC(=O)[C@H](CC(C)C)NC(=O)[C@H](CC(N)=O)NC(=O)[C@@H](NC(=O)CNC(=O)[C@@H](NC(=O)[C@H](CC(=O)O)NC(=O)[C@H](CC(C)C)NC(=O)[C@H](CCCNC(=N)N)NC(=O)[C@H](CCC(=O)O)NC(=O)[C@H](CC(C)C)NC(=O)[C@H](CO)NC(=O)[C@@H](NC(=O)[C@@H]3CCCN3C(=O)[C@@H]3CCCN3C(=O)CNC(=O)[C@H](CO)NC(=O)CNC(=O)[C@H](CO)NC(=O)CNC(=O)CNC(=O)[C@H](Cc3ccccc3)NC(=O)[C@@H](Cc3ccccc3)NC(=O)OCc3ccccc3)[C@@H](C)CC)C(C)C)[C@@H](C)O)[C@@H](C)CC)[C@@H](C)CC)C(=O)O)C2=O)C1=O)C(=O)O)[C@@H](C)CC (stereo partly drawn) [[FIP-HRC450-485]2-peg11 (no GSGSG)] | – | – | > 1000 | > 1000 | – |
| FIP-HRC450-485, Monomer N-Maleimide (peptide) | > 1000 | > 1000 | – | – | – |
| CC(C)CCC[C@@H](C)[C@H]1CC[C@H]2[C@@H]3CC=C4C[C@@H](OC(=O)CSC[C@H](NC(=O)CNC(=O)[C@H](Cc5ccccc5)NC(=O)[C@@H](Cc5ccccc5)NC(=O)OCc5ccccc5)C(=O)O)CC[C@]4(C)[C@H]3CC[C@]12C [FIP-chol (no GSGSG)] | – | – | > 1000 | > 1000 | IC50 [2]: > 1000 nM; IC50 [3]: > 1000 nM |
| FIP-peg4-chol (no GSGSG) (peptide) | > 700 | > 1000 | – | – | – |
| FIP-HRC450-485-chol (no GSGSG) (peptide) | 85.9 | 540 | – | – | – |
| FIP (no GSGSG), Monomer N-Maleimide (peptide) | > 1000 | > 1000 | – | – | – |
| FIP-HRC450-485 (no GSGSG), Monomer N-Maleimide (peptide) | > 700 | > 10000 | – | – | – |
| CC[C@H](C)[C@H](NC(=O)[C@H](C)NC(=O)[C@H](CC(N)=O)NC(=O)CNC(=O)[C@H](CC(C)C)NC(=O)[C@H](CC(N)=O)NC(=O)[C@@H](NC(=O)CNC(=O)[C@@H](NC(=O)[C@H](CC(=O)O)NC(=O)[C@H](CC(C)C)NC(=O)[C@H](CCCNC(=N)N)NC(=O)[C@H](CCC(=O)O)NC(=O)[C@H](CC(C)C)NC(=O)[C@H](CO)NC(=O)[C@@H](NC(=O)[C@@H]1CCCN1C(=O)[C@@H]1CCCN1C(=O)CNC(=O)[C@H](CO)NC(=O)CNC(=O)[C@H](CO)NC(=O)CNC(=O)CNC(=O)[C@H](Cc1ccccc1)NC(=O)[C@@H](Cc1ccccc1)NC(=O)OCc1ccccc1)[C@@H](C)CC)C(C)C)[C@@H](C)O)C(=O)N[C@@H](C)C(=O)N[C@@H](CCCCN)C(=O)N[C@@H](CC(C)C)C(=O)N[C@@H](CCC(=O)O)C(=O)N[C@@H](CC(=O)O)C(=O)N[C@@H](C)C(=O)N[C@@H](CCCCN)C(=O)N[C@@H](CCC(=O)O)C(=O)N[C@@H](CC(C)C)C(=O)N[C@@H](CC(C)C)C(=O)N[C@@H](CCC(=O)O)C(=O)N[C@@H](CO)C(=O)N[C@@H](CO)C(=O)N[C@@H](CC(=O)O)C(=O)N[C@@H](CCC(N)=O)C(=O)N[C@H](C(=O)N[C@@H](CC(C)C)C(=O)N[C@@H](CCCNC(=N)N)C(=O)N[C@@H](CS)C(=O)O)[C@@H](C)CC [FIP-HRC450-485 (no GSGSG)] | – | – | – | 6370 ± 4180 | IC50 [3]: 2770 ± 1640 nM |
| CC[C@H](C)[C@H](NC(=O)[C@H](C)NC(=O)[C@H](CC(N)=O)NC(=O)CNC(=O)[C@H](CC(C)C)NC(=O)[C@H](CC(N)=O)NC(=O)[C@@H](NC(=O)CNC(=O)[C@@H](NC(=O)[C@H](CC(=O)O)NC(=O)[C@H](CC(C)C)NC(=O)[C@H](CCCNC(=N)N)NC(=O)[C@H](CCC(=O)O)NC(=O)[C@H](CC(C)C)NC(=O)[C@H](CO)NC(=O)[C@@H](NC(=O)[C@@H]1CCCN1C(=O)[C@@H]1CCCN1C(C)=O)[C@@H](C)CC)C(C)C)[C@@H](C)O)C(=O)N[C@@H](C)C(=O)N[C@@H](CCCCN)C(=O)N[C@@H](CC(C)C)C(=O)N[C@@H](CCC(=O)O)C(=O)N[C@@H](CC(=O)O)C(=O)N[C@@H](C)C(=O)N[C@@H](CCCCN)C(=O)N[C@@H](CCC(=O)O)C(=O)N[C@@H](CC(C)C)C(=O)N[C@@H](CC(C)C)C(=O)N[C@@H](CCC(=O)O)C(=O)N[C@@H](CO)C(=O)N[C@@H](CO)C(=O)N[C@@H](CC(=O)O)C(=O)N[C@@H](CCC(N)=O)C(=O)N[C@H](C(=O)N[C@@H](CC(C)C)C(=O)N[C@@H](CCCNC(=N)N)C(=O)NCC(=O)N[C@@H](CO)C(=O)NCC(=O)N[C@@H](CO)C(=O)NCC(=O)N[C@@H](CSCC(=O)NCCOCCOCCOCCOCCC(=O)O[C@H]1CC[C@@]2(C)C(=CC[C@H]3[C@@H]4CC[C@H]([C@H](C)CCCC(C)C)[C@@]4(C)CC[C@@H]32)C1)C(=O)O)[C@@H](C)CC [HRC450-485-peg4-chol] | – | – | – | 856 ± 78.6 | IC90 [3]: 856 ± 78.6 nM |
